Laboratory results reported in patent US20210179716A1 (Pfizer, published 2021).
Where a chain is given by its changes, count along the chain named.

How the values were obtained:
Assay in all cases: KD; method not stated
cynomolgus PD-L1 protein = biological target: T1, cynomolgus PD-L1 protein (cynomolgus monkey, UniProt G7PSE7 19-238)
T1 construct: also called cyPD-L1; Cyno PD-L1

human PD-L1 protein = biological target: T2, human PD-L1 protein (human, UniProt Q9NZQ7 19-238)
T2 construct: Soluble protein used for the KD measurements; construct not described; also called hPD-L1; CD274
T2 sequence (Q9NZQ7 19-238 limits assumed): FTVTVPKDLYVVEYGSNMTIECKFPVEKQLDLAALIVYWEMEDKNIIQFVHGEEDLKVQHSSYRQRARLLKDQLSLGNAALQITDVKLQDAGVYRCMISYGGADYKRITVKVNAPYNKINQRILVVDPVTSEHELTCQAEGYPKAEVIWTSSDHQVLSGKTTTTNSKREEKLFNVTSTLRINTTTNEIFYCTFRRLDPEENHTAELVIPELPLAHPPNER

human CD47 protein = biological target: T3, human CD47 protein (human, UniProt Q08722 19-139, limits assumed)
T3 construct: Soluble protein used for the KD measurements; construct not described; also called hCD47; CD47 (human)
T3 sequence (Q08722 19-139 limits assumed): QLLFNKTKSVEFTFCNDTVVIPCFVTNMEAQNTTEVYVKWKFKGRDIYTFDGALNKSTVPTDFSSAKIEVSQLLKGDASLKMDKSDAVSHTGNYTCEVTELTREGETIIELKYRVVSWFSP

cynomolgus CD47 protein = biological target: T4, cynomolgus CD47 protein (cynomolgus monkey, UniProt A0A2K5X523 19-139)
T4 construct: also called cyCD47; Cyno CD47

T1 sequence (G7PSE7 entry or part of it): as the sequence (Q9NZQ7 19-238 limits assumed) above, with A33T, A34S, S62N, R68Q, Q82R, F173L, T185A, T192I, H215L counted along it

B1: P06B05_D56E_G57E (antibody, V domains shown)
VH: EVQLVESGGGLVKPGGSLRLSCAASGFTFSNAWMNWVRQAPGKGLEWVGRIKTKAEEGTTDYAAPVKGRFTISRDDSKNTLYLQMNSLKTEDTAVYYCTTDPGSYWDSVYGGMDYWGQGTLVTVSS
VL: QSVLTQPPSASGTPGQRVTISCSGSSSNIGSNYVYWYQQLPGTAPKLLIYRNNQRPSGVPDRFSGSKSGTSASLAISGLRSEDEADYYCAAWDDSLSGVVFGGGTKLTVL
notes: Variant of P06B05
Kd (cynomolgus PD-L1 protein): 60.6 nM | Kd (human PD-L1 protein): 69.7 nM

B2: P06B05_D61A_Y62E (antibody, V domains shown)
VH: B1 VH with E56D, E57G, D61A, Y62E
VL: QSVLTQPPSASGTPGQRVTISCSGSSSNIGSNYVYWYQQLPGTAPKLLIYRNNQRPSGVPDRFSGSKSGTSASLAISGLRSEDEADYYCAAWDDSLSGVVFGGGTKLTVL
notes: Variant of P06B05
Kd (cynomolgus PD-L1 protein): 3.17 nM | Kd (human PD-L1 protein): 3.28 nM

B3: P06B05_D61A_Y62A (antibody, V domains shown)
VH: B1 VH with E56D, E57G, D61A, Y62A
VL: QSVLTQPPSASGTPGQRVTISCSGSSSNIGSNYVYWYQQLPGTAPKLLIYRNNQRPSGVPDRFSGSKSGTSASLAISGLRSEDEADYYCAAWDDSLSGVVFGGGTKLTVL
notes: Variant of P06B05
Kd (cynomolgus PD-L1 protein): 3.67 nM | Kd (human PD-L1 protein): 4.01 nM

B4: P06B05_D61A_Y62Q (antibody, V domains shown)
VH: B1 VH with E56D, E57G, D61A, Y62Q
VL: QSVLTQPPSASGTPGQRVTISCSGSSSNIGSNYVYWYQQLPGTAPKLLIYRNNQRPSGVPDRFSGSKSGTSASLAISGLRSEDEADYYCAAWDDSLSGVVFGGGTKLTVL
notes: Variant of P06B05
Kd (cynomolgus PD-L1 protein): 4.96 nM | Kd (human PD-L1 protein): 5.97 nM

B5: P06B05_D61Q_Y62E (antibody, V domains shown)
VH: B1 VH with E56D, E57G, D61Q, Y62E
VL: not shown
notes: Variant of P06B05
Kd (cynomolgus PD-L1 protein): 4.43 nM | Kd (human PD-L1 protein): 5.81 nM

B6: P06B05_D61Q_Y62S (antibody, V domains shown)
VH: B1 VH with E56D, E57G, D61Q, Y62S
VL: not shown
notes: Variant of P06B05
Kd (cynomolgus PD-L1 protein): 5.54 nM | Kd (human PD-L1 protein): 5.02 nM

B7: P06B05_D61E_Y62E (antibody, V domains shown)
VH: B1 VH with E56D, E57G, D61E, Y62E
VL: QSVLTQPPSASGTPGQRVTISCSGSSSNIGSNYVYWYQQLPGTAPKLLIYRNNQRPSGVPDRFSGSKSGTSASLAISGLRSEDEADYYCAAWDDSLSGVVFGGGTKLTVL
notes: Variant of P06B05
Kd (cynomolgus PD-L1 protein): 8.39 nM | Kd (human PD-L1 protein): 9.49 nM

B8: P06B05_D61A_Y62S (antibody, V domains shown)
VH: B1 VH with E56D, E57G, D61A, Y62S
VL: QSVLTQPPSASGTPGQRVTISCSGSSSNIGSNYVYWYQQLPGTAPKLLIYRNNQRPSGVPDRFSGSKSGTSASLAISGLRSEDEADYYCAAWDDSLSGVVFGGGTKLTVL
notes: Variant of P06B05
Kd (cynomolgus PD-L1 protein): 2.75 nM | Kd (human PD-L1 protein): 5.37 nM

B9: P1A11_D99E (antibody, V domains shown)
VH: QVQLVQSGAEVKKPGSSVKVSCKASGYTFTNYAISWVRQAPGQGLEWMGGISPLFGTANYAQKFQGRVTITADESTSTAYMELSSLRSEDTAVYYCAREGGRSSDVGWYVGAMDVWGQGTLVTVSS
VL: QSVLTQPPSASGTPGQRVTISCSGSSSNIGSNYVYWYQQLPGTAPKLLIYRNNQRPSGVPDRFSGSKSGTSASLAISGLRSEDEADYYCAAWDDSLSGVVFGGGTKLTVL
notes: Variant of P01A11
Kd (human CD47 protein): 1200 nM | Kd (cynomolgus CD47 protein): > 1500 nM

B10: P01A11_G100V (antibody, V domains shown)
VH: B9 VH with E99D, G100V
VL: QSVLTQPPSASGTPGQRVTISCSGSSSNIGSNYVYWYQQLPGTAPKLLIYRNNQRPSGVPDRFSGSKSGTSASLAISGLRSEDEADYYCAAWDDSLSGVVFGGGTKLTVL
notes: Variant of P01A11
Kd (human CD47 protein): > 1500 nM | Kd (cynomolgus CD47 protein): > 1500 nM

B11: P1A11_L54I (antibody, V domains shown)
VH: B9 VH with L54I, E99D
VL: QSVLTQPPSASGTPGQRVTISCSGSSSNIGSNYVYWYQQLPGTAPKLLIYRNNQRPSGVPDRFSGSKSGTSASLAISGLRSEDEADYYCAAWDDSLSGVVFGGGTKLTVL
notes: Variant of P01A11
Kd (human CD47 protein): 0.69 nM | Kd (cynomolgus CD47 protein): 1.3 nM

B12: P1A11_W108F (antibody, V domains shown)
VH: B9 VH with E99D, W108F
VL: not shown
notes: Variant of P01A11
Kd (human CD47 protein): 103 nM | Kd (cynomolgus CD47 protein): 117 nM

B13: P01A11_T30S_N31S_L54I_G100A_M113L (antibody, V domains shown)
VH: B9 VH with T30S, N31S, L54I, E99D, G100A, M113L
VL: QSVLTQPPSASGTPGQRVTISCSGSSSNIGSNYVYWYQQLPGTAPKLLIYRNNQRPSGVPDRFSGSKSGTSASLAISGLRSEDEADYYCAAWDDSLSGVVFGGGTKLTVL
notes: Variant of P01A11
Kd (human CD47 protein): 106 nM | Kd (cynomolgus CD47 protein): 120 nM

B14: P1A11_T30S (antibody, V domains shown)
VH: B9 VH with T30S, E99D
VL: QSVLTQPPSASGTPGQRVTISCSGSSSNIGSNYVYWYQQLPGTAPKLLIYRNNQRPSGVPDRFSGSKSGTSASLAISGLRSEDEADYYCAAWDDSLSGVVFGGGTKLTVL
notes: Variant of P01A11
Kd (human CD47 protein): 1.8 nM | Kd (cynomolgus CD47 protein): 2.5 nM

B15: P1A11_G100S (antibody, V domains shown)
VH: B9 VH with E99D, G100S
VL: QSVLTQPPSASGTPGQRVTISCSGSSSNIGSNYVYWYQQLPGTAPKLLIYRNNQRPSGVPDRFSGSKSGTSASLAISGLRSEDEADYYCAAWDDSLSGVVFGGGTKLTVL
notes: Variant of P01A11
Kd (human CD47 protein): 28 nM | Kd (cynomolgus CD47 protein): 36 nM

B16: P01A11_Y27G_L54I_G100A_M113L (antibody, V domains shown)
VH: B9 VH with Y27G, L54I, E99D, G100A, M113L
VL: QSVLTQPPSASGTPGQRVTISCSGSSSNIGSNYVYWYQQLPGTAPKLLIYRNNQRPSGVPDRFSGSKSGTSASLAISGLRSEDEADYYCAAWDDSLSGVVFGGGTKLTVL
notes: Variant of P01A11
Kd (human CD47 protein): 154 nM | Kd (cynomolgus CD47 protein): 198 nM

B17: P01A11_Y27G_N31S_L54I_G100A_M113L (antibody, V domains shown)
VH: B9 VH with Y27G, N31S, L54I, E99D, G100A, M113L
VL: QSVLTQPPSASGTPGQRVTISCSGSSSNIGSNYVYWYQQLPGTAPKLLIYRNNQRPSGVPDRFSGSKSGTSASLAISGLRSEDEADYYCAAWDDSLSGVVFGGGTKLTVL
notes: Variant of P01A11
Kd (human CD47 protein): 497 nM | Kd (cynomolgus CD47 protein): 704 nM

B18: P01A11_T30S_N31S_L54I_G100A (antibody, V domains shown)
VH: B9 VH with T30S, N31S, L54I, E99D, G100A
VL: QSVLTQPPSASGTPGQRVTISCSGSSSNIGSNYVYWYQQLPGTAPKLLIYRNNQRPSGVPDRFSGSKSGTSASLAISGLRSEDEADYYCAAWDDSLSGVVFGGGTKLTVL
notes: Variant of P01A11
Kd (human CD47 protein): 97 nM | Kd (cynomolgus CD47 protein): 138 nM

B19: P01A11_P53G_D105E (antibody, V domains shown)
VH: B9 VH with P53G, E99D, D105E
VL: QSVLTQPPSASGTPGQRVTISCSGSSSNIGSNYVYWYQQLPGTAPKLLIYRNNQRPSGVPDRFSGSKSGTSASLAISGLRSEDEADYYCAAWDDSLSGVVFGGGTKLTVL
notes: Variant of P01A11
Kd (human CD47 protein): 241 nM | Kd (cynomolgus CD47 protein): 351 nM

B20: P1A11_Y27G (antibody, V domains shown)
VH: B9 VH with Y27G, E99D
VL: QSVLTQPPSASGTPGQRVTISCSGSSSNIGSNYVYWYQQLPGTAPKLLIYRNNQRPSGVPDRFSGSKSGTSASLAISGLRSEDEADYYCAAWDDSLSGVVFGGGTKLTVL
notes: Variant of P01A11
Kd (human CD47 protein): 20 nM | Kd (cynomolgus CD47 protein): 23 nM

B21: P01A11_L54A_S104E (antibody, V domains shown)
VH: B9 VH with L54A, E99D, S104E
VL: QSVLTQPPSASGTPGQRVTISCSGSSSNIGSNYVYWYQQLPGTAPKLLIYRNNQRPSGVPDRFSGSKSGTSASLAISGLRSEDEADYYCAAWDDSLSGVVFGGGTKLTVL
notes: Variant of P01A11
Kd (human CD47 protein): 19 nM | Kd (cynomolgus CD47 protein): 16 nM

B22: P1A11_S52I (antibody, V domains shown)
VH: B9 VH with S52I, E99D
VL: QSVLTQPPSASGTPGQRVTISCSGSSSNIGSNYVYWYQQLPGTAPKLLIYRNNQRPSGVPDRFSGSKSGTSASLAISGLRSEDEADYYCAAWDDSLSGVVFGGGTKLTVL
notes: Variant of P01A11
Kd (human CD47 protein): 1310 nM | Kd (cynomolgus CD47 protein): > 1500 nM

B23: P1A11_G100A (antibody, V domains shown)
VH: B9 VH with E99D, G100A
VL: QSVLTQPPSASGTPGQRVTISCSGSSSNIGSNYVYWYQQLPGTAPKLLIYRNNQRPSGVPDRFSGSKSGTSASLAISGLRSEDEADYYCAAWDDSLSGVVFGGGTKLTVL
notes: Variant of P01A11
Kd (human CD47 protein): 8.5 nM | Kd (cynomolgus CD47 protein): 11 nM

B24: P01A11_Y27G_L54I_G100A (antibody, V domains shown)
VH: B9 VH with Y27G, L54I, E99D, G100A
VL: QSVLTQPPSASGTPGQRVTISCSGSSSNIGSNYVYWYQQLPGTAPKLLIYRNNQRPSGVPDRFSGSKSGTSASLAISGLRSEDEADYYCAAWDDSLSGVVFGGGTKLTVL
notes: Variant of P01A11
Kd (human CD47 protein): 132 nM | Kd (cynomolgus CD47 protein): 180 nM

B25: P1A11_G100Q (antibody, V domains shown)
VH: B9 VH with E99D, G100Q
VL: not shown
notes: Variant of P01A11
Kd (human CD47 protein): > 1500 nM | Kd (cynomolgus CD47 protein): > 1500 nM

B26: P01A11_D105E (antibody, V domains shown)
VH: B9 VH with E99D, D105E
VL: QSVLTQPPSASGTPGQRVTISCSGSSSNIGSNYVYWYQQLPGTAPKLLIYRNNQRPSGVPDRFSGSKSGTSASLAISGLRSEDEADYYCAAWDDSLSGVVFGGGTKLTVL
notes: Variant of P01A11
Kd (human CD47 protein): 48 nM | Kd (cynomolgus CD47 protein): 62 nM

B27: P01A11_L54A_R102A (antibody, V domains shown)
VH: B9 VH with L54A, E99D, R102A
VL: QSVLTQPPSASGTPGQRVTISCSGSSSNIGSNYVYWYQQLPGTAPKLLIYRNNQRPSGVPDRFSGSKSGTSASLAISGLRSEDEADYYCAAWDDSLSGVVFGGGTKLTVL
notes: Variant of P01A11
Kd (human CD47 protein): 38 nM | Kd (cynomolgus CD47 protein): 45 nM

B28: P1A11_M113L (antibody, V domains shown)
VH: B9 VH with E99D, M113L
VL: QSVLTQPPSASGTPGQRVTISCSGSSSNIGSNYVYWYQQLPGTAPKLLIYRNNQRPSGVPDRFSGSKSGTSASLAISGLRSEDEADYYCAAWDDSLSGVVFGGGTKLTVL
notes: Variant of P01A11
Kd (human CD47 protein): 0.86 nM | Kd (cynomolgus CD47 protein): 1.2 nM

B29: P1A11_N31S (antibody, V domains shown)
VH: B9 VH with N31S, E99D
VL: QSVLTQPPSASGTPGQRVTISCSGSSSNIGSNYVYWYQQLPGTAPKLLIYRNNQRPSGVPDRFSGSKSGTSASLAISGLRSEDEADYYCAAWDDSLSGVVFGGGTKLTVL
notes: Variant of P01A11
Kd (human CD47 protein): 7 nM | Kd (cynomolgus CD47 protein): 9.3 nM

B30: P01A11_T30S_N31S_L54I_G100A_W108Y_M113L (antibody, V domains shown)
VH: B9 VH with T30S, N31S, L54I, E99D, G100A, W108Y, M113L
VL: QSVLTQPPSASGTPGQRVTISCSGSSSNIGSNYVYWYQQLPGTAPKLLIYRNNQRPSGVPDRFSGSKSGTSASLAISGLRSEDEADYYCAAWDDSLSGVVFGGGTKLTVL
notes: Variant of P01A11
Kd (human CD47 protein): > 1500 nM | Kd (cynomolgus CD47 protein): > 1500 nM

B31: P01A11_L54A_D114E (antibody, V domains shown)
VH: B9 VH with L54A, E99D, D114E
VL: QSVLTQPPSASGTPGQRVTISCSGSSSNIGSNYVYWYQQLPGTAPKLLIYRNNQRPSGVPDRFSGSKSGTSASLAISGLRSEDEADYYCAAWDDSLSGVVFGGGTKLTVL
notes: Variant of P01A11
Kd (human CD47 protein): 31 nM | Kd (cynomolgus CD47 protein): 46 nM

B32: P1A11_M113I (antibody, V domains shown)
VH: B9 VH with E99D, M113I
VL: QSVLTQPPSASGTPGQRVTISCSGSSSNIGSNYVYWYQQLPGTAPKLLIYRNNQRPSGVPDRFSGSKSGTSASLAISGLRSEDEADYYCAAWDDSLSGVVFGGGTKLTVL
notes: Variant of P01A11
Kd (human CD47 protein): 2.9 nM | Kd (cynomolgus CD47 protein): 3.7 nM

B33: P01A11_W108A (antibody, V domains shown)
VH: B9 VH with E99D, W108A
VL: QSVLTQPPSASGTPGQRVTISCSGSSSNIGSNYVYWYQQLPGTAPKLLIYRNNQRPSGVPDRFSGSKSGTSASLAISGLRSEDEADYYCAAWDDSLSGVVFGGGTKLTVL
notes: Variant of P01A11
Kd (human CD47 protein): 608 nM | Kd (cynomolgus CD47 protein): 773 nM

B34: P01A11_Y27G_L54I_G100A_M113I (antibody, V domains shown)
VH: B9 VH with Y27G, L54I, E99D, G100A, M113I
VL: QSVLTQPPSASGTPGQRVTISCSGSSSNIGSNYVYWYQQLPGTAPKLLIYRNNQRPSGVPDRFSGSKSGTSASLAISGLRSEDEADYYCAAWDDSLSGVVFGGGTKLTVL
notes: Variant of P01A11
Kd (human CD47 protein): 263 nM | Kd (cynomolgus CD47 protein): 371 nM

B35: P1A11_F55L (antibody, V domains shown)
VH: B9 VH with F55L, E99D
VL: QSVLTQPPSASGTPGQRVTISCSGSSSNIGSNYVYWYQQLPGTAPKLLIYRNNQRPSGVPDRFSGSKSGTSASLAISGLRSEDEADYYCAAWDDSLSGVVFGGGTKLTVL
notes: Variant of P01A11
Kd (human CD47 protein): 2.7 nM | Kd (cynomolgus CD47 protein): 3.3 nM

B36: P1A11_W108Y (antibody, V domains shown)
VH: B9 VH with E99D, W108Y
VL: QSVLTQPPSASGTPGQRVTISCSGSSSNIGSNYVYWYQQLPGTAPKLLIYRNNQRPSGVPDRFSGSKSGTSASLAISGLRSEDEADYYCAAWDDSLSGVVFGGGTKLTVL
notes: Variant of P01A11
Kd (human CD47 protein): 25 nM | Kd (cynomolgus CD47 protein): 32 nM

B37: P01A11_T30S_N31S_L54I_G100A_M113I (antibody, V domains shown)
VH: B9 VH with T30S, N31S, L54I, E99D, G100A, M113I
VL: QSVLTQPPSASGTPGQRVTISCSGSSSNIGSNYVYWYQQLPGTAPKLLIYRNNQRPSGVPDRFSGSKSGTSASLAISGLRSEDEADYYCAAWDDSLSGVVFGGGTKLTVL
notes: Variant of P01A11
Kd (human CD47 protein): 75 nM | Kd (cynomolgus CD47 protein): 105 nM

B38: P01A11_P53G (antibody, V domains shown)
VH: B9 VH with P53G, E99D
VL: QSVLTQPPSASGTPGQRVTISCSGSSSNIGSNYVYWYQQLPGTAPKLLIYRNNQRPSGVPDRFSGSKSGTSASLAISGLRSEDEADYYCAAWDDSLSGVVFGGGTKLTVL
notes: Variant of P01A11
Kd (human CD47 protein): 5.6 nM | Kd (cynomolgus CD47 protein): 7.6 nM

B39: P01A11_P53G_D114E (antibody, V domains shown)
VH: B9 VH with P53G, E99D, D114E
VL: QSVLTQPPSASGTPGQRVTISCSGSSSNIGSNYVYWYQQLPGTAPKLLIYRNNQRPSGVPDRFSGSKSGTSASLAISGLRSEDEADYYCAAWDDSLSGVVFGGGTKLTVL
notes: Variant of P01A11
Kd (human CD47 protein): 300 nM | Kd (cynomolgus CD47 protein): 520 nM
